55 substances from the supplement of paper PMC12042874 can be followed below.

± gives the uncertainty stated by the source.

The data set in a line: amyloid nucleation score (Sup35N fusion, yeast selection) (log enrichment); library NNK3; higher = more nucleation; inactive = no reads after selection. Summed up:
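After 24 hours of induction with 100 μM copper sulfate, psi-negative yeast expressing peptides of 20 random codons fused to Sup35N were grown for 7 days at 30°C on medium lacking adenine and uracil. Input and output plasmid inserts were sequenced with Illumina, and sequences with under 100 input reads were discarded. Scores for nucleation are the DiMSum log enrichment of output over input reads, centred on the mode score of non-aggregating sequences.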
Turning to NRSTGVKSQGIDFLLSCFLV, the amyloid nucleation score entry was “inactive”.
The value for QQDTNDSGYYGRVGMLVSYW was “inactive”.
The value for DQGLLRLMDTWLCMGVRQPS was “inactive”; that for SGISFTCMRHEMVSLTGGL was “inactive”; that for ILLQVLIR was “inactive”.
The value for NIAIVW was “inactive”.
Turning to WIRVDRCGCARVPLGDHVKK, the amyloid nucleation score result is “inactive”.
The value for FCARYLFCLISGDYS was “inactive”; that for FISWMLAR was 0.9 ± 0.12; that for RSWESV was “inactive”.
The value for LSFYISPS was 0.748 ± 0.1; that for FKSASGRL was “inactive”; that for VILVFIFRYLHTPSGSSGAR was “inactive”.
As to LDKCNHS, the amyloid nucleation score result was “inactive”.
The value for GVIIRFWYWQDYAASLEYTC was “inactive”; that for CRWGNVIYFFTR was 1.45 ± 0.12; that for LRVRFTISWL was -0.471 ± 0.41.
Under TEYFWGNYRKLCCFWWWLGR stands “inactive”; under FKFKERDHEWYVWFKLKHKS, “inactive”.
For YHYQDNMS, the amyloid nucleation score result is “inactive”.
Consider ISPVRRWPQLLIYAMVTGGQ, for which the amyloid nucleation score entry is “inactive”.
For GMNYNKMRTVLSRAPPRVRS, the amyloid nucleation score result was “inactive”.
Consider YHIRR, for which the amyloid nucleation score entry is “inactive”.
Under ARCVVAFIILGNYR stands 0.663 ± 0.21.
Under YVWRDLKAMGFVYAGVCGKA stands “inactive”; under YEVNGFAQNRA, -0.564 ± 1.
Under SKPSYFHNFLFDKMSDRLCT stands “inactive”; under NKNGSHL, “inactive”.
As to DTQSKTRRV, the amyloid nucleation score result was “inactive”.
Under KSHWTTM stands 1.64 ± 0.11; under NRSTLYSSLCGYRVRENISW, 1.4 ± 0.097.
Under FSITSADGCCSHLLRMYTNG stands “inactive”; under FGQGGALFLWKCMTYFILLG, “inactive”; under CGLQLQCMVEVLVVCPEQLL, 0.737 ± 0.16.
Under VSTRGITDMMLGDMAVVNVG stands “inactive”; under TLYWFHTGICAYRMWTSVFF, “inactive”; under LYAWPHRTIVVVWLRILLFR, “inactive”.
Consider RRGFFYIH, for which the amyloid nucleation score result was “inactive”.
Under FFGKAT stands “inactive”.
The value for SFPINGYMFSGYLERWCFTS was “inactive”; that for SCIYMSC was 1.73 ± 0.073; that for SIDGMWTMYRRSVKYGDQFH was “inactive”.
The value for IYKSQMLEFVEVVRSYMPVQ was “inactive”; that for VRVSPLCIGRPALGQAIAVF was “inactive”.
VIGVCFSKFWWNTHDTRSDS returned an amyloid nucleation score of 0.665 ± 0.23.
The value for AWSWLRANSRTQFWSRGLKP was “inactive”.
The value for DVYGDGCSCYSVKYTCDRCQ was “inactive”; that for NNQCKACSLWWQSSYPDKMF was “inactive”; that for VMFFDIKIMARFWTPNEL was “inactive”.
The value for TYAIYVDSGIFLEVHGNLYM was 2.64 ± 0.08; that for AYYKCWNNATDLVTNVPPIH was “inactive”; that for RYLNVVPLLPCYMIWFPRVS was “inactive”.
In turn, GCNLTYNVIGFGLYMKFRDE had an amyloid nucleation score of 1.85 ± 0.069.
The value for MYVYSYQVYNLTCARLAKK was “inactive”.
For the substance DFLVPIKARNYCLNVGPNTY, the amyloid nucleation score entry was “inactive”.
